The source of these data is patent US20220213176A1 (SHANGHAITECH UNIVERSITY, published 2022).

Experiment [1] deals with T1, HCoV-HKU1 spike (HCoV-HKU1, UniProt Q5MQD0 13-1356).
T1 construct: whole, on cells
T1 sequence: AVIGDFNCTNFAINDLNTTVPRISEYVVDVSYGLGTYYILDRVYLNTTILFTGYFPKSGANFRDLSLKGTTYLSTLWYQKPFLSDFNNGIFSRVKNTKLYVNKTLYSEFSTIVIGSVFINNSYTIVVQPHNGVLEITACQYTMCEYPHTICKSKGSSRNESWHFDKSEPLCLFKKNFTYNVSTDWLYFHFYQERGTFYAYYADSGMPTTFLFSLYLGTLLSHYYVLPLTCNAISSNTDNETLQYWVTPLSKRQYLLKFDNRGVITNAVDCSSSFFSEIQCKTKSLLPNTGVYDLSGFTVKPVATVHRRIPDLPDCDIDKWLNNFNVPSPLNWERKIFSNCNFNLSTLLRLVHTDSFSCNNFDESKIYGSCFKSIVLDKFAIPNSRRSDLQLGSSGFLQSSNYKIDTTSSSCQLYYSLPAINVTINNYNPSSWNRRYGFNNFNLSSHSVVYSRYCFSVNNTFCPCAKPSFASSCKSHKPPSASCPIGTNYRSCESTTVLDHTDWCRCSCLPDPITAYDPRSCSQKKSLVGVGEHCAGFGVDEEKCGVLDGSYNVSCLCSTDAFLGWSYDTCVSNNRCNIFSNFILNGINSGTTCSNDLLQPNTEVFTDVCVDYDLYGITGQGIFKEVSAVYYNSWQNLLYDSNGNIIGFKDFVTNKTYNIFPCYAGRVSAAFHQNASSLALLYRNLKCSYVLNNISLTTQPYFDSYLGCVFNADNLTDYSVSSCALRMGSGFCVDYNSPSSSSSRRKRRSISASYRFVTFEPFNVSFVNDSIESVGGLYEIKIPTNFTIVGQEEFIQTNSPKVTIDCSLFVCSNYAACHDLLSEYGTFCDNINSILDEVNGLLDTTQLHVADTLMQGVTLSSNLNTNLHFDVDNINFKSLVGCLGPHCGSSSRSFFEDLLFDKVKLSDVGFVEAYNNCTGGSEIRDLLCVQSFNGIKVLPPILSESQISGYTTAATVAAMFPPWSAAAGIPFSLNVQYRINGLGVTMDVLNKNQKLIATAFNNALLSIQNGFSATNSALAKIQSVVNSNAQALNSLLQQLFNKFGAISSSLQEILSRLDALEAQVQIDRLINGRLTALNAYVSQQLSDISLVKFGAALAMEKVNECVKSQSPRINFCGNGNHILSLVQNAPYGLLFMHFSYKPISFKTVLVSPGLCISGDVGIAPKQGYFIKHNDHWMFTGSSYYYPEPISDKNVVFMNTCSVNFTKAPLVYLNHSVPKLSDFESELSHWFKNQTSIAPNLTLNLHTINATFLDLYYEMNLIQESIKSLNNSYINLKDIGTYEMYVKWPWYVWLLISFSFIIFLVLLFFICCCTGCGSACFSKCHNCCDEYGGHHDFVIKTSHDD
Briefly: FACS, transfected HEK293T cells, IgG4 antibody.

Experiment [2] has as its target T2, HCoV-NL63 spike (HCoV-NL63, UniProt Q6Q1S2 19-1356).
T2 construct: whole, on cells
T2 sequence: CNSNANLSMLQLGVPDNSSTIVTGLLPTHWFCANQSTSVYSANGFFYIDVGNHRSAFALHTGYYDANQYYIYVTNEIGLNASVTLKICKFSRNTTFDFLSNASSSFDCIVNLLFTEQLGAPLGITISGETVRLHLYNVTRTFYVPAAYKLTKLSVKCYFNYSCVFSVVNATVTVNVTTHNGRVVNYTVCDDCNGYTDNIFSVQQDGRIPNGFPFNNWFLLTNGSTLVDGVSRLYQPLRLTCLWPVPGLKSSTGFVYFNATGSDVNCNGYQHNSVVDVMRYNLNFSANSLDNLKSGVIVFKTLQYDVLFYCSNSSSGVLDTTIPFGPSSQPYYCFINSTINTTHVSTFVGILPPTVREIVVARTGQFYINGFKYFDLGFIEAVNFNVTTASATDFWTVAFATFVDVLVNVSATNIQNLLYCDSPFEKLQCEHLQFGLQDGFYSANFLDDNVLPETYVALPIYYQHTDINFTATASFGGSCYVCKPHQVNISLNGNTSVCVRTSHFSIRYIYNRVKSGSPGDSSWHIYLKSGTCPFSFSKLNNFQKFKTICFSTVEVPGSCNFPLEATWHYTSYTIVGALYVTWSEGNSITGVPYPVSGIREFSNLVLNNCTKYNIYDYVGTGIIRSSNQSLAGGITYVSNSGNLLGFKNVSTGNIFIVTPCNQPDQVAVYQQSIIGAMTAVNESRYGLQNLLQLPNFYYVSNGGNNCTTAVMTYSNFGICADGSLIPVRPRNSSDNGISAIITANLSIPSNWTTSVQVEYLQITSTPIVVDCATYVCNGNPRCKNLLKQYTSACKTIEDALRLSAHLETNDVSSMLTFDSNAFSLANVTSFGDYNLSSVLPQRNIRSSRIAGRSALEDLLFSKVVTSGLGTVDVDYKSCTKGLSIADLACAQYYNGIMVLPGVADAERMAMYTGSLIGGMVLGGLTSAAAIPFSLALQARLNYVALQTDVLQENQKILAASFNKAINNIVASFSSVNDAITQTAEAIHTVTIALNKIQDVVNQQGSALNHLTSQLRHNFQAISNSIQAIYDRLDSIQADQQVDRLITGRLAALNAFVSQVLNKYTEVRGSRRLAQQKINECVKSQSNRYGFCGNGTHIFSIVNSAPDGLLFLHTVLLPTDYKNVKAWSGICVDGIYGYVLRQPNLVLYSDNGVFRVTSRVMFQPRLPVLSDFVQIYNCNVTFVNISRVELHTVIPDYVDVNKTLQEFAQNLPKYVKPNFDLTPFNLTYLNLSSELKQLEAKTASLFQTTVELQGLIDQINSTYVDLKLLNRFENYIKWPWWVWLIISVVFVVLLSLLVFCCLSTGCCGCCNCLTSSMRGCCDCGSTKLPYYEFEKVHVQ
Kind of experiment: FACS, transfected HEK293T cells, IgG4 antibody.

Experiment [3] deals with spike of authentic SARS-CoV-2 virus BetaCoV/Australia/VIC01/2020 (SARS-CoV-2). Kind of experiment: cell-based or functional assay.

B1: S-D4 (antibody, V domains shown)
VH: QVQLQESGGGVVQPGRSLRLSCEVSGFTFSDYGMHWVRQAPGKGLEWVAVIWSEGSTEYYADSVKGRFTISRDNSKDTLYLQMNSLRAEDTAVYYCARPGYPTSTDRSPAAAGARQYYYYGMDVWGQGTTVTVSS
VL: NFMLTQPHSVSESPGKTVTISCTRSGGSGAANYVQWYQQRPGSSPTTLIYEDSRRPPGVPDRFSGSVDTSSNSASLTISGLQTEDEADYYCQSYDSSNHVVFGGGTKLTVLG
notes: also called S-D4 dimer; S-D4 IgG4
Take B1: the binding result in experiment [1] and in experiment [2] was “no binding” each time. Also, in experiment [3], the “NT50, authentic virus B VIC01 neutralization” value was 2.04 nM.

B2: S-B8 (antibody, V domains shown)
VH: QVQLVQSGGGLIQPGGSLRLSCAASGFTVSLSHMNWVRQAPGKGLEWVSITYGDGNSDYADSVKGRFTISRDNSKNTLYLQMNSLRAEDTAVYYCAREYYYGMDVWGQGTTVTVSS
VL: not shown
notes: also called S-B8 dimer
B2: the binding result in experiment [1] and in experiment [2] was “no binding” in each case. Also, in experiment [3], the “NT50, authentic virus B VIC01 neutralization” value is 0.88 nM.

B3: S-E6 (antibody, V domains shown)
VH: QVTLRESGPGLVKPSETLSLTCAVSGGSLSSVNYYWSWIRQHPGKGLEWIGYIYYSGSTNYNPSLKSRVTMSLDTSKNQFSLKLSSVTAADTAVYYCATPGAIMGALHIWGQGTLVTVSS
VL: QAVLTQPSSASSTPGQRVIISCSGSSSNIGSNTVSWYQQVPGAAPKLLIYFDYRRPSGVPDRFSGTRSGTSASLGISGLQSEDEADYYCAAWDDSLSAWVFGRGTKLTVLG
notes: also called S-E6 dimer; dimer S-E6
With B3, the binding result in experiment [1] and in experiment [2] was “no binding” each time. Besides, the “NT50, authentic virus B VIC01 neutralization” value in experiment [3] worked out at 0.15 nM.
